B1: Cytosol type APX1 from Arabidopsis thaliana (AtAPX1), recombinant (enzyme, UniProt Q05431 1-250, looked up)
chain: MTKNYPTVSEDYKKAVEKCRRKLRGLIAEKNCAPIMVRLAWHSAGTFDCQSRTGGPFGTMRFDAEQAHGANSGIHIALRLLDPIREQFPTISFADFHQLAGVVAVEVTGGPDIPFHPGREDKPQPPPEGRLPDATKGCDHLRDVFAKQMGLSDKDIVALSGAHTLGRCHKDRSGFEGAWTSNPLIFDNSYFKELLSGEKEGLLQLVSDKALLDDPVFRPLVEKYAADEDAFFADYAEAHMKLSELGFADA
notes: Ascorbate peroxidase 1, cytosolic (AtAPX1), Arabidopsis thaliana; 27 kDa on SDS-PAGE; Heme enzyme; also called ascorbate peroxidase 1; recombinant AtAPX1 protein; source: E. coli BL21 (DE3), pET28a, purified (Ni-NTA, thrombin cleavage of the His-tag, SEC)
B2: S-nitrosylated recombinant AtAPX1 (GSNO-treated) (enzyme, Arabidopsis thaliana, UniProt Q05431 1-250, looked up)
chain: B1 chain
modifications: S-nitrosylation of cysteine (GSNO treatment); positions not determined in this paper
notes: Ascorbate peroxidase 1, cytosolic (AtAPX1), Arabidopsis thaliana; same construct as m1; not mapped here; also called S-nitrosylated APX1; GSNO-treated AtAPX1; source: E. coli BL21 (DE3), purified, then incubated with GSNO (0-1 mM) at 25°C for 30 min in the dark
B3: S-sulfhydrated recombinant AtAPX1 (NaHS-treated) (enzyme, Arabidopsis thaliana, UniProt Q05431 1-250, looked up)
chain: B1 chain
modifications: S-sulfhydration of cysteine (NaHS treatment); positions not determined in this paper
notes: Ascorbate peroxidase 1, cytosolic (AtAPX1), Arabidopsis thaliana; same construct as m1; not mapped here; also called NaHS-treated AtAPX1; source: E. coli BL21 (DE3), purified, then incubated with NaHS (10 nM-100 μM) at 4°C for 30 min in the dark
B4: Tyrosine-nitrated recombinant AtAPX1 (SIN-1-treated) (enzyme, Arabidopsis thaliana, UniProt Q05431 1-250, looked up)
chain: B1 chain
modifications: tyrosine nitration (SIN-1 treatment); positions not determined in this paper
notes: Ascorbate peroxidase 1, cytosolic (AtAPX1), Arabidopsis thaliana; same construct as m1; also called SIN-1-treated protein; source: E. coli BL21 (DE3), purified, then incubated with SIN-1 (0-10 mM) at 37°C for 1 h in the dark

Molecular target: the molecule itself
Assay: native gel or EMSA; 10% native-PAGE of purified recombinant AtAPX1 (total protein, SEC fractions F1-F3, and protein treated with GSNO, NaHS or SIN-1)

Protein	stoichiometry N	binding result
B1	2	
B2		binds
B3		binds
B4		binds

Reference: paper PMC8236860, “Regulation of Dual Activity of Ascorbate Peroxidase 1 From Arabidopsis thaliana by Conformational Changes and Posttranslational Modifications” (Frontiers in Plant Science, 2021)
